Measurements from patent publication US20230212319A1, “NOVEL ANTIGEN BINDING DOMAINS AND SYNTHETIC ANTIGEN RECEPTORS INCORPORATING THE SAME” (University of Southern California, priority 2020, published 2023).

B1: 22210 (protein)
chain: MALPVTALLLPLALLLHAARPACPQLGPYELWELSHGTGGGGSGGGGSGGGGSEFDIQMTQSPSSLSASVGDRVTITCKASDHINNWLAWYQQKPGQAPKLLIYGATTLETGVPSRFSGSGSGTDYTLTISSLQPEDFATYYCQQSWNTPWTFGQGTKLEIKRLEDLKNVFPPEVAVFEPSKAEIAHTQKATLVCLATGFYPDHVELSWWVNGKEVHSGVCTDPQPLKEQPALNDSRYCLSSRLRVSATFWQNPRNHFRCQVQFYGLSENDEWTQDRAKPVTQIVSAEAWGRADCGITSASYHQGVLSATILYEILLGKATLYAVLVSALVLMAMVKRKDSRGRAKRSGSGATNFSLLKQAGDVEENPGPTSATMDWIWRILFLVGAATGAHSGPQVQLQESGGGLAQAGGSLRLSCAASGRTFSMGWFRQAPGKEREFVAAITYSGGSPYYASSVRGRFTISRDNAKNTVYLQMNSLKPEDTAVYYCAANPTYGSDWNAENWGQGTQVTVSSGSGGGGSGGGGSGGGGSFEQVQLQQPGAELVKPGASVKMSCKASGYAFSSYWINWMKQKPGQGLEWIGQIYPGDGDTNYNGKFKGRATLTADTSSSTAYMQLSSLTSEDSAVYFCARSITTVVGCAMDYWGQGTSVTVSSTRIQNPDPAVYQLRDSKSSDKSVCLFTDFDSQTNVSQSKDSDVYITDKCVLDMRSMDFKSNSAVAWSNKSDFACANAFNNSIIPEDTFFPSSDVPCDVKLVEKSFETDTNLNFQNLSVIGFRILLLKVAGFNLLMTLRLWSSRAKRSGSGVKQTLNFDLLKLAGDVESNPGPSRGHMTEYKPTVRLATRDDVPRAVRTLAAAFADYPATRHTVDPDRHIERVTELQELFLTRVGLDIGKVWVADDGAAVAVWTTPESVEAGAVFAEIGPRMAELSGSRLAAQQQMEGLLAPHRPKEPAWFLATVGVSPDHQGKGLGSAVVLPGVEAAERAGVPAFLETSAPRNLPFYERLGFTVTADVEVPEGPRTWCMTRKPGA
B2: 22091 (protein)
chain: MALPVTALLLPLALLLHAARPQLQLQESGPGLVKPSETLSLTCTVSGDSISSGDYYWGWIRQPPGKGLEWIGHIYYSGVTYYNPSLKSRVTISVDTSRNQFSLKLSSVTAADTAVYYCTREDSSNWRSRGQGTLVTVSSLEDLKNVFPPEVAVFEPSKAEIAHTQKATLVCLATGFYPDHVELSWWVNGKEVHSGVCTDPQPLKEQPALNDSRYCLSSRLRVSATFWQNPRNHFRCQVQFYGLSENDEWTQDRAKPVTQIVSAEAWGRADCGITSASYHQGVLSATILYEILLGKATLYAVLVSALVLMAMVKRKDSRGRAKRSGSGATNFSLLKQAGDVEENPGPTSMDWIWRILFLVGAATGAHSFEVQLLESGGGLIQPGGSLRLSCAASGFTFSSHAMTWVRQAPGKGLEWVSAISGSGDYTHYADSVKGRFTISRDNSKNTVYLQMNSLRAEDSAVYYCAKDEDGGSLLGHRGQGTLVTVSSTRIQNPDPAVYQLRDSKSSDKSVCLFTDFDSQTNVSQSKDSDVYITDKCVLDMRSMDFKSNSAVAWSNKSDFACANAFNNSIIPEDTFFPSPESSCDVKLVEKSFETDTNLNFQNLSVIGFRILLLKVAGFNLLMTLRLWSSRAKRSGSGVKQTLNFDLLKLAGDVESNPGPSRGHMTEYKPTVRLATRDDVPRAVRTLAAAFADYPATRHTVDPDRHIERVTELQELFLTRVGLDIGKVWVADDGAAVAVWTTPESVEAGAVFAEIGPRMAELSGSRLAAQQQMEGLLAPHRPKEPAWFLATVGVSPDHQGKGLGSAVVLPGVEAAERAGVPAFLETSAPRNLPFYERLGFTVTADVEVPEGPRTWCMTRKPGA
B3: 22209 (protein)
chain: MALPVTALLLPLALLLHAARPACPYINIYNAEPANPSEKNSPTQYAYGTGGGGSGGGGSGGGGSEFDIQMTQSPSSLSASVGDRVTITCKASDHINNWLAWYQQKPGQAPKLLIYGATTLETGVPSRFSGSGSGTDYTLTISSLQPEDFATYYCQQSWNTPWTFGQGTKLEIKRLEDLKNVFPPEVAVFEPSKAEIAHTQKATLVCLATGFYPDHVELSWWVNGKEVHSGVCTDPQPLKEQPALNDSRYCLSSRLRVSATFWQNPRNHFRCQVQFYGLSENDEWTQDRAKPVTQIVSAEAWGRADCGITSASYHQGVLSATILYEILLGKATLYAVLVSALVLMAMVKRKDSRGRAKRSGSGATNFSLLKQAGDVEENPGPTSATMDWIWRILFLVGAATGAHSGPQVQLQESGGGLAQAGGSLRLSCAASGRTFSMGWFRQAPGKEREFVAAITYSGGSPYYASSVRGRFTISRDNAKNTVYLQMNSLKPEDTAVYYCAANPTYGSDWNAENWGQGTQVTVSSGSGGGGSGGGGSGGGGSFEQVQLQQPGAELVKPGASVKMSCKASGYAFSSYWINWMKQKPGQGLEWIGQIYPGDGDTNYNGKFKGRATLTADTSSSTAYMQLSSLTSEDSAVYFCARSITTVVGCAMDYWGQGTSVTVSSTRIQNPDPAVYQLRDSKSSDKSVCLFTDFDSQTNVSQSKDSDVYITDKCVLDMRSMDFKSNSAVAWSNKSDFACANAFNNSIIPEDTFFPSSDVPCDVKLVEKSFETDTNLNFQNLSVIGFRILLLKVAGFNLLMTLRLWSSRAKRSGSGVKQTLNFDLLKLAGDVESNPGPSRGHMTEYKPTVRLATRDDVPRAVRTLAAAFADYPATRHTVDPDRHIERVTELQELFLTRVGLDIGKVWVADDGAAVAVWTTPESVEAGAVFAEIGPRMAELSGSRLAAQQQMEGLLAPHRPKEPAWFLATVGVSPDHQGKGLGSAVVLPGVEAAERAGVPAFLETSAPRNLPFYERLGFTVTADVEVPEGPRTWCMTRKPGA
B4: 21986 (protein)
chain: MALPVTALLLPLALLLHAARPQLQLQESGPGLVKPSETLSLTCTVSGDSISSGDYYWGWIRQPPGKGLEWIGHIYYSGVTYYNPSLKSRVTISVDTSRNQFSLKLSSVTAADTAVYYCTREDSSNWRSRGQGTLVTVSSLEDLKNVFPPEVAVFEPSEAEISHTQKATLVCLATGFYPDHVELSWWVNGKEVHSGVCTDPQPLKEQPALNDSRYCLSSRLRVSATFWQNPRNHFRCQVQFYGLSENDEWTQDRAKPVTQIVSAEAWGRADCGFTSESYQQGVLSATILYEILLGKATLYAVLVSALVLMAMVKRKDSRGRAKRSGSGATNFSLLKQAGDVEENPGPTSMDWIWRILFLVGAATGAHSFEEVQLLESGGGLVQPGGSLRLSCAASGFTFSSYAMSWVRQAPGKGLEWVSSISGSGDYIYYADSVKGRFTISRDISKNTLYLQMNSLRAEDTAVYYCAKEGTGANSSLADYRGQGTLVTVSSTRIQNPDPAVYQLRDSKSSDKSVCLFTDFDSQTNVSQSKDSDVYITDKCVLDMRSMDFKSNSAVAWSNKSDFACANAFNNSIIPEDTFFPSPESSCDVKLVEKSFETDTNLNFQNLSVIGFRILLLKVAGFNLLMTLRLWSSRAKRSGSGVKQTLNFDLLKLAGDVESNPGPSRGHMTEYKPTVRLATRDDVPRAVRTLAAAFADYPATRHTVDPDRHIERVTELQELFLTRVGLDIGKVWVADDGAAVAVWTTPESVEAGAVFAEIGPRMAELSGSRLAAQQQMEGLLAPHRPKEPAWFLATVGVSPDHQGKGLGSAVVLPGVEAAERAGVPAFLETSAPRNLPFYERLGFTVTADVEVPEGPRTWCMTRKPGA

Columns and labels:
Type in all cases: cell-based
[1] = tested on: RAJI cells; assay: JNG assay, co-culture with RAJI cells; details: JNG cells expressing construct, co-culture with Raji
How it was run: (§1)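 Jurkat-NFAT-GFP (JNG) cells stably expressing SAR constructs via lentiviral transduction and puromycin/blasticidin selection were cocultured with target cells at E:T ~1:2 for ~4–18 h. NFAT-driven GFP was measured by FACS versus parental JNG cells; scores +/- to 5+ denote ~5–50% GFP-positive cells.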

[2] = tested on: Nalm6 cells; assay: JNG assay, co-culture with Nalm6 cells; details: co-culture with Nalm6
Procedure: Cellular supernatant is collected and assayed for the induction of cytokines (e.g., IL2).
JNG (Jurkat cells expressing EGFP under an NFAT promoter) were infected with lentiviral vectors encoding different single chain and multi-chain SARs by spinfection in the presence of 8 µg/ml of Polybrene® (Sigma, Catalog no. H9268). The Jurkat-NFAT-GFP cells are engineered in such a way that the IL-2 promoter, which carries NFAT binding sites, is cloned upstream of the GFP gene. These cells have been used to study signaling via TCR and CAR. The different SARs were stably expressed in Jurkat NFAT-GFP cells by lentiviral mediated gene transfer, followed by selection with puromycin or blasticidin. No drug selection was used in case the construct lacked an antibiotic resistance gene. The SAR-expressing Jurkat-NFAT-GFP cells were cocultured with the target cells at E:T ratio of approximately 1:2 for approximately 4 hours to 18 hours. When the interaction between SIRs and their target antigen results in activation of the NFAT pathway, GFP expression is induced. […] GFP expression was monitored by FACS analysis. The Jurkat-NFAT-GFP (parental) cells were used as control. The structure of different constructs can be determined based on their names. For example, the construct CD8SP-CD19-hu-mROO5-1-vL-[hTCRa-C SDVP]-F-F2A-Spe-IgHSP-Apa-CD20-vHH-2HCD25-G4S-CDl9-hu-mROO5-1-vH-Mlu-[hTCRb-KACIAH]-F-P2A-PAC has the following modules from 5′ to 3′ direction: a CD8 signal peptide (CD8SP), the CD19 targeting hu-mROO5-1 vL fragment (CD19-hu-mROO5-1), Xho1 cloning site, human TCRa constant chain containing CSDVP mutations (hTCRa-CSDVP), Furine cleavage site (F), F2A ribosomal skip sequence (F2A), SpeI site, human IgH signal peptide (IgHSP), Apa I restriction enzyme site, camelid CD20-2HCD25-VHH module targeting CD20, BamHI restriction enzyme site, Glycinex4-serine linker (G4S), BstI restriction enzyme site, CD19-hu-mROO5-1-vH fragment targeting CD19, Mlu I restriction enzyme site, human TCRb constant chain containing KACIAH mutations ([hTCRb-KACIAH]), Furine cleavage site (F), P2A ribosomal skip sequence and Puromycin resistance gene (PAC). The sequence of the other constructs in the table can be similarly determined from their names and by referring to the different Tables of this disclosure that provide the names and SEQ ID NO of the different modules. Alternatively, the composition and modular architecture of the different SAR constructs can be determined from their sequences by bioinformatics tools, including using nucleic acid and amino acids homology searches. A SAR is considered positive in the assay in case the SAR expressing Jurkat-NFAT-GFP cells show greater % GFP positive cells when cultured with the target cell line as compared to parental Jurkat-NFAT-GFP cells. The signs +/-, +, 2+ etc. after the name of the cell lines indicate the relative degree of positivity on the Jurkat-NFAT-GFP assay as measured by the % GFP positive cells after culture of the SAR expressing Jurkat-NFAT-GFP cells with that cell line above the % GFP cells observed in parental Jurkat NFAT-GFP cells serving as controls. In general, the number +/-, +, 2+, 3+, 4+, 5+ refer to approximately 5%, 10%, 20%, 30%, 40% and 50% GFP positive cells. The % of GFP induction in the above assay is dependent not only the relative strength of the SAR but also, among other factors, on the relative level of expression of the SAR in the JNG cells and the relative level of expression of the target antigen in the target cell line. To control for the difference in gene transduction efficiency of the different SAR constructs, the experiment was conducted with JNG cells transduced with SAR constructs co-expressing a drug resistance gene (e.g., puromycin or PAC) followed by drug selection to generate a stable population of SAR-expressing cells. […]

[3] = tested on: L363 cells; assay: JNG assay, co-culture with L363 cells; details: co-culture with L363
How it was run: as §1

Molecule	NFAT-GFP ASSAY: Raji [1]	NFAT-GFP ASSAY: Nalm6 [2]	NFAT-GFP ASSAY: L363 [3]
B1	2+ (refer to approximately 5%, 10%, 20%, 30%, 40% and 50% GFP positive cells)	+ (refer to approximately 5%, 10%, 20%, 30%, 40% and 50% GFP positive cells)	
B2	+ (refer to approximately 5%, 10%, 20%, 30%, 40% and 50% GFP positive cells)	+/- (refer to approximately 5%, 10%, 20%, 30%, 40% and 50% GFP positive cells)	
B3	2+ (refer to approximately 5%, 10%, 20%, 30%, 40% and 50% GFP positive cells)	2+ (refer to approximately 5%, 10%, 20%, 30%, 40% and 50% GFP positive cells)	
B4		+/- (refer to approximately 5%, 10%, 20%, 30%, 40% and 50% GFP positive cells)	+ (refer to approximately 5%, 10%, 20%, 30%, 40% and 50% GFP positive cells)
